# In patent US20260258397A1, “REAGENTS AND SYSTEMS FOR […]” (priority 2023, published 2026):
# Biological target: ΔN-HAB1 (HAB1 Δ1-178), recombinant (Arabidopsis) (UniProt Q9CAJ0)
# Experiment: cell-based or functional assay
# Chain of ΔN-HAB1 (HAB1 Δ1-178), recombinant (Arabidopsis) (Q9CAJ0 179-511, stated change not applied): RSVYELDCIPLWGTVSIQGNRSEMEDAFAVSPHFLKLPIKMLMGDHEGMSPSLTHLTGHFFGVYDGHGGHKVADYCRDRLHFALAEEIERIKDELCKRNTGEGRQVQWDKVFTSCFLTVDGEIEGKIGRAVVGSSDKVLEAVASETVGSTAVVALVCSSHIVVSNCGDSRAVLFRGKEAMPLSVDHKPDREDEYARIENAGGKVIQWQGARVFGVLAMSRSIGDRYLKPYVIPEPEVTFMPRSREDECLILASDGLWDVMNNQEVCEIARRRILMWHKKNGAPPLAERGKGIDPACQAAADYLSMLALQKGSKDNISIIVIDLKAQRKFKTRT
binder,measurement,value
"6xHis-PYR1^WIN, recombinant (designed binder, not shown: small tags and cut ends) MPSELTPEERSELKNSIAEFHTYQLDPGSCSSLHAQRIHAPPELVWSIVRRFDKPQTYQHFIKSCSVEQNFEMRVGCTRDVIVISGLPANTSTERLDILDDERRVTGFSIIGGEHRLTNYKSVTTVHRFEKENRIWTVVLESYVVDMPEGNSEDDTRMAIDTVVKLNLQKLATVAEAMARNSGDGSGSQVT","EC50 for HAB1 inhibition (in vitro phosphatase activity, fluorogenic substrate; the ligand WIN 55,212-2 is titrated, 50 nM receptor, 25 nM ΔN-HAB1)",72 nM
"PYR1^DIAZI, recombinant (designed binder) MPSELTPGERSELKNSIAEFHTYQLDPGSCSSLHAQRIHAPPELVWSIVRRFDKPQTYKHFIKSCSVEQNFEMRVGCTRDYIVISGMPANTSTERLDILDDERRVTGYSIIGGEHRLTNYKSVTTVHRFEKENRIWTVVLESYVVDMPEGNSEDDTRVGVDTVVKLNLQKLATVAEAMARNSGDGSGSQVT",EC50 of receptor-mediated inhibition of HAB1 phosphatase activity in vitro (ligand diazinon titrated),36 nM
"6xHis-PYR1^4F, recombinant (designed binder, not shown: small tags and cut ends) MPSELTPEERSELKNSIAEFHTYQLDPGSCSSLHAQRIHAPPELVWSIVRRFDKPQTYKHFIKSCSVEQNFEMRVGCTRDVIVISGLPANTSTERLDILDDERRVTGFSIIGGEQRLTNGKSVTTVHRFEKENRIWTVVLESYVVDMPEGNSEDDTRMVGDTVVKLNLQKLATVAEAMARNSGDGSGSQVT","EC50 for HAB1 inhibition (in vitro phosphatase activity, fluorogenic substrate; the ligand 4F-MDMB-BUTINACA is titrated, 25 nM receptor, 25 nM ΔN-HAB1)",102 nM
"PYR1^PIRI, recombinant (designed binder) MPSELTPEERSELKNSIAEFHTYQLDPGSCSSLHAQRIHAPPELVWSIVRRFDKPQTYRHFIKSCSVEQNFEMRVGCTRDVIVISGLPANTMTERLDILDDERRVTGFSIIGGEHRLTSYKQVTTVHRFGKENRIWTVVLESYVVDMPEGNSEDDTRMTTDTVVKLNLQKLATAAEAMARNSGDGSGSQVT",EC50 of receptor-mediated inhibition of HAB1 phosphatase activity in vitro (ligand pirimiphos-methyl titrated),58 nM
